Data reported in the supplement of paper PMC10724198.
± gives the standard deviation of the averaged measurements.

System: Saccharomyces cerevisiae
Test: protein stability index of tFT-peptide fusion (C-terminal peptide) (PSI (0-1 scale)); higher = more stable (slower turnover)
Settings: genetic background: cdc34-1; temperature: 37 C
Procedure: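 MPS profiling in S. cerevisiae of the tFT-X12 degron library: putative degron peptides plus stable controls, 12 aa, fused to the C-terminus of a sfGFP-mCherry timer. Cells are FACS-sorted into 8 mCherry/sfGFP bins and deep-sequenced. PSI runs from 0 (unstable) to 1 (stable). Backgrounds are wild type, das1Δ and doa10Δ at 30 °C, and wild type, das1Δ, cdc34-1 and cdc53-1 at 37 °C; 2-3 technical replicates each.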
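Further: PSI is a weighted mean of sequencing reads over stability bins, variants kept only with over 10 reads, mCherry proximal and sfGFP distal, peptide attached via GGGS linker.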

| Sequence | protein stability index |
| --- | --- |
| GTVRSLLKWRCS | 0.654 ± 0.051 |
| GVCLGFICVGFC | 0.494 ± 0.028 |
| GVCWCVLFVVGC | 0.312 ± 0.012 |
| GVYFIGISRCVC | 0.559 ± 0.006 |
| GVYRLCLLLLVY | 0.0836 ± 0.015 |
| GWRGVVLVFVLV | 0.302 ± 0.0049 |
| GWSRRFFCLFIV | 0.203 ± 0.052 |
| GWWCGIGVAVSV | 0.432 ± 0.039 |
| HHACLLPVRKAG | 0.636 ± 0.056 |
| HLAQYSSSLHLM | 0.657 ± 0.098 |
| HPPPPPPPPSLS | 0.673 ± 0.038 |
| IACVLSIFLNAA | 0.325 ± 0.0071 |
| ICQFFFFALLSF | 0.109 ± 0.04 |
| IDSEVHLWKRSA | 0.618 ± 0.046 |
| IFAVLVSGSFFF | 0.425 ± 0.018 |
| IFLGFGPLFGRL | 0.862 ± 0.044 |
| IGSFFLFFLLIF | 0.281 ± 0.025 |
| IIIGTLLYVNVR | 0.279 ± 0.0059 |
| IKRLKEVARHVS | 0.623 ± 0.057 |
| ILGQSVIMRIKM | 0.673 ± 0.035 |
| ILLICLQFFNLF | 0.427 ± 0.057 |
| ILRIYIPRWRRQ | 0.648 ± 0.069 |
| INKKKKMIITKI | 0.617 ± 0.11 |
| IPRSCRIRLAVL | 0.658 ± 0.03 |
| IQICLNRLRLFH | 0.654 ± 0.024 |
| IRACGCSFLWVC | 0.465 ± 0.048 |

| Sequence | protein stability index |
| --- | --- |
| IRLCAASFMVVF | 0.501 ± 0.025 |
| IRSRGLLIRWLS | 0.52 ± 0.025 |
| IVCAVTSIFLFF | 0.306 ± 0.015 |
| IVRSLFGYLCVV | 0.571 ± 0.0099 |
| KCVVMFFLRSVS | 0.636 ± 0.024 |
| KFFRSWVLTSPA | 0.585 ± 0.06 |
| KFRGMTLRNKVC | 0.545 ± 0.041 |
| KHTGTGNAPNCD | 0.686 ± 0.061 |
| KIKKLKNRRKLV | 0.673 ± 0.0046 |
| KKKKQKKNNNKR | 0.699 ± 0.094 |
| KLKDLTRIKIFR | 0.681 ± 0.0063 |
| KRARVIWKLVVV | 0.59 ± 0.033 |
| KRMVEKNKKKIN | 0.57 ± 0.063 |
| KSSIGVWTLLIR | 0.282 ± 0.012 |
| KSTLVRILVFHV | 0.559 ± 0.047 |
| KYKANLGNLKVH | 0.596 ± 0.067 |
| LAPPFPVVLTPA | 0.294 ± 0.043 |
| LCGGEWVVWVKG | 0.645 ± 0.023 |
| LCIFFWFSSFFL | 0.471 ± 0.028 |
| LCLICLFLLKVL | 0.477 ± 0.049 |
| LCRCPVGVFVLL | 0.516 ± 0.036 |
| LCVVFCIRTYRV | 0.249 ± 0.027 |
| LCYVLLWLLCRS | 0.45 ± 0.017 |
| LDLPFESGIACF | 0.32 ± 0.035 |
| LEGLLIRVYITF | 0.105 ± 0.034 |
| LFFFLFSLLIFF | 0.248 ± 0.019 |

| Sequence | protein stability index |
| --- | --- |
| LFFFRLFVFWVF | 0.195 ± 0.034 |
| LFFFSFSFLFFL | 0.291 ± 0.07 |
| LFFFVFFVLFSV | 0.2271 ± 0.00037 |
| LFFRLLCAFLFL | 0.532 ± 0.041 |
| LFFVFCLFFIYF | 0.167 ± 0.031 |
| LFHSIPRLLLLK | 0.0746 ± 0.013 |
| LFKFCLGIPLFL | 0.51 ± 0.026 |
| LFLSAFFYLLVW | 0.199 ± 0.0028 |
| LFLVLFCVVGFV | 0.234 ± 0.036 |
| LFSFFVFFFLLD | 0.358 ± 0.086 |
| LFTRWSILFKLF | 0.335 ± 0.075 |
| LGDPPCRMIVVR | 0.532 ± 0.026 |
| LGGVEDRWRTAT | 0.653 ± 0.05 |
| LGRLDYKRMKRA | 0.7464 ± 0.0014 |
| LGSYIFVVVIYF | 0.152 ± 0.011 |
| LGSYVWVFVYFW | 0.159 ± 0.022 |
| LHIHGAGIVCAG | 0.549 ± 0.026 |
| LICRFLFFVCVG | 0.412 ± 0.024 |
| LILLTFTLRVPV | 0.192 ± 0.0027 |
| LLCLCSLPVFAS | 0.317 ± 0.014 |
| LLFLLSPFNFAV | 0.651 ± 0.035 |
| LLFTFSLSFFFR | 0.405 ± 0.036 |
| LLLHFMFSIFWF | 0.3811 ± 0.00039 |
| LLMWVLFDCHYS | 0.39 ± 0.017 |
| LLPTSVFLPSLF | 0.6907 ± 0.0038 |
| LLRIFLPLLYLL | 0.203 ± 0.062 |

Same assay, conditions: genetic background: cdc53-1; temperature: 37 C

| Sequence | protein stability index |
| --- | --- |
| GTVRSLLKWRCS | 0.732 ± 0.0075 |
| GVCLGFICVGFC | 0.55 ± 0.0067 |
| GVCWCVLFVVGC | 0.417 ± 0.059 |
| GVYFIGISRCVC | 0.642 ± 0.037 |
| GVYRLCLLLLVY | 0.107 ± 0.03 |
| GWRGVVLVFVLV | 0.46 ± 0.059 |
| GWSRRFFCLFIV | 0.303 ± 0.0019 |
| GWWCGIGVAVSV | 0.461 ± 0.039 |
| HHACLLPVRKAG | 0.752 ± 0.012 |
| HLAQYSSSLHLM | 0.719 ± 0.011 |
| HPPPPPPPPSLS | 0.715 ± 0.0098 |
| IACVLSIFLNAA | 0.435 ± 0.051 |
| ICQFFFFALLSF | 0.0674 ± 0.0054 |
| IDSEVHLWKRSA | 0.725 ± 0.012 |
| IFAVLVSGSFFF | 0.541 ± 0.014 |
| IFLGFGPLFGRL | 0.878 ± 0.011 |
| IGSFFLFFLLIF | 0.291 ± 0.029 |
| IIIGTLLYVNVR | 0.323 ± 0.033 |
| IKRLKEVARHVS | 0.706 ± 0.017 |
| ILGQSVIMRIKM | 0.7301 ± 0.0028 |
| ILLICLQFFNLF | 0.544 ± 0.012 |
| ILRIYIPRWRRQ | 0.6821 ± 0.0054 |
| INKKKKMIITKI | 0.726 ± 0.011 |
| IPRSCRIRLAVL | 0.715 ± 0.0073 |
| IQICLNRLRLFH | 0.7 ± 0.01 |
| IRACGCSFLWVC | 0.63 ± 0.01 |

| Sequence | protein stability index |
| --- | --- |
| IRLCAASFMVVF | 0.55 ± 0.03 |
| IRSRGLLIRWLS | 0.679 ± 0.023 |
| IVCAVTSIFLFF | 0.45 ± 0.0079 |
| IVRSLFGYLCVV | 0.609 ± 0.0076 |
| KCVVMFFLRSVS | 0.6956 ± 0.0065 |
| KFFRSWVLTSPA | 0.607 ± 0.015 |
| KFRGMTLRNKVC | 0.73 ± 0.047 |
| KHTGTGNAPNCD | 0.729 ± 0.024 |
| KIKKLKNRRKLV | 0.7717 ± 0.0033 |
| KKKKQKKNNNKR | 0.687 ± 0.15 |
| KLKDLTRIKIFR | 0.714 ± 0.033 |
| KRARVIWKLVVV | 0.528 ± 0.008 |
| KRMVEKNKKKIN | 0.747 ± 0.087 |
| KSSIGVWTLLIR | 0.3 ± 0.026 |
| KSTLVRILVFHV | 0.6474 ± 0.0042 |
| KYKANLGNLKVH | 0.7161 ± 0.0013 |
| LAPPFPVVLTPA | 0.32381 ± 2.9e-05 |
| LCGGEWVVWVKG | 0.7321 ± 0.0055 |
| LCIFFWFSSFFL | 0.561 ± 0.018 |
| LCLICLFLLKVL | 0.548 ± 0.048 |
| LCRCPVGVFVLL | 0.549 ± 0.031 |
| LCVVFCIRTYRV | 0.437 ± 0.079 |
| LCYVLLWLLCRS | 0.516 ± 0.049 |
| LDLPFESGIACF | 0.297 ± 0.0081 |
| LEGLLIRVYITF | 0.234 ± 0.021 |
| LFFFLFSLLIFF | 0.25 ± 0.0039 |

| Sequence | protein stability index |
| --- | --- |
| LFFFRLFVFWVF | 0.173 ± 0.037 |
| LFFFSFSFLFFL | 0.29 ± 0.0037 |
| LFFFVFFVLFSV | 0.204 ± 0.0057 |
| LFFRLLCAFLFL | 0.452 ± 0.012 |
| LFFVFCLFFIYF | 0.102 ± 0.0085 |
| LFHSIPRLLLLK | 0.0485 ± 0.0081 |
| LFKFCLGIPLFL | 0.522 ± 0.029 |
| LFLSAFFYLLVW | 0.2233 ± 0.0014 |
| LFLVLFCVVGFV | 0.311 ± 0.031 |
| LFSFFVFFFLLD | 0.446 ± 0.0062 |
| LFTRWSILFKLF | 0.357 ± 0.058 |
| LGDPPCRMIVVR | 0.58581 ± 4.2e-05 |
| LGGVEDRWRTAT | 0.704 ± 0.0094 |
| LGRLDYKRMKRA | 0.748 ± 0.024 |
| LGSYIFVVVIYF | 0.228 ± 0.0032 |
| LGSYVWVFVYFW | 0.258 ± 0.0054 |
| LHIHGAGIVCAG | 0.584 ± 0.029 |
| LICRFLFFVCVG | 0.451 ± 0.0053 |
| LILLTFTLRVPV | 0.381 ± 0.046 |
| LLCLCSLPVFAS | 0.319 ± 0.029 |
| LLFLLSPFNFAV | 0.726 ± 0.0084 |
| LLFTFSLSFFFR | 0.467 ± 0.0087 |
| LLLHFMFSIFWF | 0.375 ± 0.032 |
| LLMWVLFDCHYS | 0.542 ± 0.034 |
| LLPTSVFLPSLF | 0.7726 ± 0.0059 |
| LLRIFLPLLYLL | 0.199 ± 0.011 |
